Positions count from the first letter of the chain named. Numbers in names are those of the source.
B1: E35D/M47I: variant CD80 IgV-Fc, IgV SEQ ID NO:177 (protein)
chain: VIHVTKEVKEVATLSCGHNVSVEELAQTRIYWQKDKKMVLTMMSGDINIWPEYKNRTIFDITNNLSIVILALRPSDEGTYECVVLKYEKDAFKREHLAEVTLSVKAD
B2: L70Q/A91G/N144D (protein)
chain: VIHVTKEVKEVATLSCGHNVSVEELAQTRIYWQKEKKMVLTMMSGDMNIWPEYKNRTIFDITNNLSIVIQALRPSDEGTYECVVLKYEKDGFKREHLAEVTLSVKADFPTPSISDFEIPTSNIRRIICSTSGGFPEPHLSWLEDGEELNAINTTVSQDPETELYAVSSKLDFNMTTNHSFMCLIKYGHLRVNQTFNWNTTKQEHFPDN
modifications: CD80 v122 ECD
B3: L70Q/A91G/T130A (protein)
chain: B2 chain with T130A, D144N
modifications: CD80 v2 ECD
B4: L70Q/A91G/I118A/T120S/T130A/K169E (protein)
chain: B2 chain with I118A, T120S, T130A, D144N, K169E
modifications: CD80 v123 ECD
B5: V4M/L70Q/A91G/I118V/T120S/T130A/K169E (protein)
chain: B2 chain with V4M, I118V, T120S, T130A, D144N, K169E
modifications: CD80 v124 ECD
B6: L70Q/A91G/I118V/T120S/T130A/K169E (protein)
chain: B2 chain with I118V, T120S, T130A, D144N, K169E
modifications: CD80 v125 ECD
B7: V20L/L70Q/A91S/I118V/T120S/T130A (protein)
chain: B2 chain with V20L, I118V, T120S, T130A, D144N
modifications: CD80 v127 ECD
B8: S44P/L70Q/A91G/T130A (protein)
chain: B2 chain with S44P, T130A, D144N
B9: L70Q/A91G/E117G/I118V/T120S/T130A (protein)
chain: B2 chain with E117G, I118V, T120S, T130A, D144N
modifications: CD80 v128 ECD
B10: A91G/T120S/I118V/T130A (protein)
chain: B2 chain with Q70L, I118V, T120S, T130A, D144N
B11: L70R/A91G/I118V/T120S/T130A/T199S (protein)
chain: B2 chain with Q70R, I118V, T120S, T130A, D144N, T199S
modifications: CD80 v130 ECD
B12: L70Q/E81A/A91G/I118V/T120S/I127T/T130A (protein)
chain: B2 chain with E81A, I118V, T120S, I127T, T130A, D144N
modifications: CD80 v131 ECD
B13: L70Q/Y87N/A91G/T130A (protein)
chain: B2 chain with Y87N, T130A, D144N
modifications: CD80 v12 ECD
B14: T28S/L70Q/A91G/E95K/I118V/T120S/I126V/T130A/K169E (protein, UniProt P33681 35-288, looked up, variant T28S L70Q A91G E95K I118V T120S I126V T130A K169E)
T-lymphocyte activation …: VIHVTKEVKEVATLSCGHNVSVEELAQSRIYWQKEKKMVLTMMSGDMNIWPEYKNRTIFDITNNLSIVIQALRPSDEGTYECVVLKYEKDGFKRKHLAEVTLSVKADFPTPSISDFEVPSSNIRRVICSASGGFPEPHLSWLENGEELNAINTTVSQDPETELYAVSSELDFNMTTNHSFMCLIKYGHLRVNQTFNWNTTKQEHFPDNLLPSWAITLISVNGIFVICCLTYCFAPRCRERRRNERLRRESVRPV
B15: N63S/L70Q/A91G/S114T/I118V/T120S/T130A (protein)
chain: B2 chain with N63S, S114T, I118V, T120S, T130A, D144N, H188D
modifications: CD80 v133 ECD
B16: K36E/I67T/L70Q/A91G/I118V/T1205/T130A/N152T (protein)
chain: B2 chain with K36E, I67T, I118V, T120S, T130A, D144N, N152T
B17: E52G/L70Q/A91G/D107N/I118V/T1205/T130A/K169E (protein)
chain: B2 chain with E52G, D107N, I118V, T120S, T130A, D144N, K169E
B18: K37E/F595/L70Q/A91G/T120S/T130A (protein)
chain: B2 chain with K37E, F59S, I118V, T120S, T130A, D144N, K185E
B19: A91G/S103P (protein)
chain: B2 chain with Q70L, S103P, D144N
B20: K89E/T130A (protein)
chain: B2 chain with Q70L, K89E, G91A, T130A, D144N
modifications: CD80 v19 ECD
B21: A91G (protein)
chain: B2 chain with Q70L, D144N
B22: D60V/A91G/I118V/T120S/T130A/K169E (protein)
chain: B2 chain with D60V, Q70L, I118V, T120S, T130A, D144N, K169E
modifications: CD80 v137 ECD
B23: K54M/L70Q/A91G/Y164H (protein)
chain: B2 chain with K54M, D144N, Y164H, H188D
modifications: CD80 v138 ECD
B24: M38T/L70Q/E77G/A91G/I118V/T120S/T130A/N152T (protein)
chain: B2 chain with M38T, E77G, I118V, T120S, T130A, D144N, N152T
B25: R29H/E52G/L70R/E88G/A91G/T130A (protein)
chain: B2 chain with R29H, E52G, Q70R, E88G, T130A, D144N
modifications: CD80 v24 ECD
B26: Y31H/T41G/M43L/L70Q/A91G/I118V/T120S//I126V/T130A (protein)
chain: B2 chain with Y31H, T41G, M43L, I118V, T120S, I126V, T130A, D144N

How the values were obtained:
[1] = molecular target: T1, CD28 (Homo sapiens, UniProt P10747); assay: Jurkat/IL2 + CHO/OKT3 +/- PD-L1 reporter assay: PD-L1-dependent CD28 costimulation; format: cell-based; design: host or cells: Jurkat cells expressing an IL-2-luciferase reporter; conditions: luciferase signal
Outline: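 Jurkat reporter cells (100,000/well) preincubated 15 min at room temperature with test protein, then cocultured 5 h at 37 °C with CHO aAPCs bearing anti-CD3 scFv (OKT3) with or without PD-L1. Luciferase luminescence (RLU) read after lysis-substrate addition.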

[2] = molecular target: T1, CD28; assay: Jurkat/IL2 reporter assay: blockade of CD28 costimulation (plate-bound anti-CD3/CD86-Fc); format: cell-based; design: host or cells: Jurkat cells expressing an IL-2-luciferase reporter; conditions: Table E5; protein diluted to 40 nM before mixing with cells; 5 hours
Outline: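 Jurkat cells carrying an IL-2–luciferase reporter were preincubated 15 min at room temperature with CD80-Fc fusion molecules, then added to plates coated overnight with anti-CD3 and CD86-Fc. After 5 h at 37 °C, luciferase luminescence was read with Bio-Glo.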

[3] = tested on: allogeneic CD4+ T cells; assay: Mixed Lymphocyte Reaction (MLR), IFN-gamma; format: cell-based, human; conditions: Table E32; variant ECD-Fc in MLR assay; culture supernatant
Procedure: Soluble rCD80.Fc bioactivity was tested in a human Mixed Lymphocyte Reaction (MLR). Human primary dendritic cells (DC) were generated by culturing monocytes isolated from PBMC (BenTech Bio, USA) in vitro for 7 days with 500U/ml rIL-4 (R&D Systems, USA) and 250 U/ml rGM-CSF (R&D Systems, USA) in Ex-Vivo 15 media (Lonza, Switzerland). 10,000 matured DC and 100,000 purified allogeneic CD4+ T cells (BenTech Bio, USA) were co-cultured with variant CD80 Fc fusion proteins and controls in 96 well round bottom plates in 200 μl final volume of Ex-Vivo 15 media. On day 5, IFN-gamma secretion in culture supernatants was analyzed using the Human IFN-gamma Duoset ELISA kit (R&D Systems, USA). Optical density was measured by VMax ELISA Microplate Reader (Molecular Devices, USA) and quantitated against titrated rIFN-gamma standard included in the IFN-gamma Duo-set kit (R&D Systems, USA).

[4] = tested on: human pan T cells; assay: Anti-CD3 coimmobilization assay, IFN-gamma; format: cell-based; conditions: Table E32; variant ECD-Fc coimmobilized with anti-CD3; culture supernatant
Outline: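 Plates coated overnight with 1 nM or 4 nM OKT3 anti-CD3 plus 1–80 nM rCD80.Fc variants, then washed. Purified human pan T cells or BC3 T cell clone (100,000/well) cultured 3 days in Ex-Vivo 15; supernatant IFN-gamma measured by ELISA.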

Molecule	MLR IFN-gamma levels [3]	Coimmobilization with anti CD3 IFN-gamma [4]	other results
B1			PD-L1-Dependent CD28 Costimulation, +PD-L1, 0.6 nM ([1]; CHO/OKT3/PD-L1 aAPC, 0.6 nM): 1047; PD-L1-Dependent CD28 Costimulation, +PD-L1, 50 nM ([1]; CHO/OKT3/PD-L1 aAPC, 50 nM): 3778; PD-L1-Dependent CD28 Costimulation, No PD-L1, 50 nM ([1]; CHO/OKT3 aAPC, no PD-L1, 50 nM): 894; PD-L1-Dependent CD28 Costimulation, No PD-L1, […] ([1]; CHO/OKT3 aAPC, no PD-L1, […]): 637; Average Relative Luminescence Units [2]: 1444 Relative Luminescence Units
B2	716 pg/mL	93 pg/mL	
B3	752 pg/mL	99 pg/mL	
B4	741 pg/mL	86 pg/mL	
B5	991 pg/mL	139 pg/mL	
B6	741 pg/mL	104 pg/mL	
B7	710 pg/mL	195 pg/mL	
B8	854 pg/mL	142 pg/mL	
B9	736 pg/mL	98 pg/mL	
B10	714 pg/mL	276 pg/mL	
B11	702 pg/mL	105 pg/mL	
B12	772 pg/mL	98 pg/mL	
B13	769 pg/mL	136 pg/mL	
B14	834 pg/mL	120 pg/mL	
B15	705 pg/mL	116 pg/mL	
B16	852 pg/mL	53 pg/mL	
B17	874 pg/mL	94 pg/mL	
B18	863 pg/mL	109 pg/mL	
B19	670 pg/mL	124 pg/mL	
B20	761 pg/mL	204 pg/mL	
B21	877 pg/mL	220 pg/mL	
B22	744 pg/mL	120 pg/mL	
B23	685 pg/mL	152 pg/mL	
B24	796 pg/mL	119 pg/mL	
B25	740 pg/mL	200 pg/mL	
B26	782 pg/mL	288 pg/mL	
